Results from US20210230286A1 (published 2021).
Where no end group is shown, it is not given here.

Molecular target: T1, PD-L1 protein (human, UniProt Q9NZQ7 19-238, limits assumed)
T1 construct: Plate-coated recombinant protein; also called human PD-L1 protein
Assay: ELISA: PD-L1 coated at 2 ug/ml, FITC-labelled PPLC titrated, HRP anti-FITC detection, OD 410 nm
Description: A 96-well ELISA plate was coated with 2μg/ml PD-L1 protein at 4° C. overnight. […] After incubation, HRP-conjugated anti-FITC antibody was added, incubated for 1 h, and then ABTS coloring solution was added. The OD value at 410 nm was measured using a M5 microplate reader, and GraphPad Prism 6 was used for plotting and analysis.

T1 sequence (Q9NZQ7 19-238 limits assumed): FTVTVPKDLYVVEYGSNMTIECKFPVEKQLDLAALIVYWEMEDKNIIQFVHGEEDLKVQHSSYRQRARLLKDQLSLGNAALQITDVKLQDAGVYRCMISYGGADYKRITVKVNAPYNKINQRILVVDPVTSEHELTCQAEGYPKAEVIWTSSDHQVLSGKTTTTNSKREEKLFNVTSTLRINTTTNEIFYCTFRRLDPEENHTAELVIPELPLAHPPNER

B1: PPLC peptide labeled with FITC (peptide)
peptide: VSVSHFQKVWVV
modifications: also: FITC label, attachment not given here
notes: Chemically synthesized peptide; The FITC-labelled form was used in the direct ELISA, flow cytometry and confocal assays; also called FITC-labeled PPLC
**Q.** B1 was tested. Which Kd did it give?
**A.** 750 nM
